Assay results from paper PMC10713552 (Communications Biology, 2023).
Read-outs that look alike come from different tables or passages of the source.

Legend:
Assay in all cases: BLI
[1] = biological target: T1, D614G-Hexapro (WT) spike ectodomain (SARS-CoV-2 Wuhan-Hu-1 D614G, D614G); settings: both partners purified
[2] = biological target: T2, Omicron BA.1 spike protein ectodomain (BLI) (SARS-CoV-2 Omicron BA.1, strain); settings: both partners purified
[3] = biological target: Omicron BA.2 spike protein ectodomain (BLI) (SARS-CoV-2, Omicron BA.2, strain); settings: both partners purified
[4] = biological target: Omicron BA.2.12 spike protein ectodomain (BLI) (SARS-CoV-2 Omicron BA.2.12.1, strain); settings: both partners purified
[5] = biological target: Omicron BA.5 spike protein ectodomain (BLI) (SARS-CoV-2 Omicron BA.5 (BA.4/5 spike), strain); settings: both partners purified
[6] = biological target: T1, D614G-Hexapro (WT) spike ectodomain
[7] = biological target: T2, Omicron BA.1 spike protein ectodomain …
[8] = biological target: SARS-CoV-2 Omicron BA.2.12.1 spike protein ectodomain (SARS-CoV-2 Omicron BA.2.12.1, S373P); settings: both partners purified
[9] = biological target: SARS-CoV-2 B.1.1.529.1/BA.1 S-HexaPro (SARS-CoV-2, Omicron BA.1, Ser371Leu | Ser373Pro | Ser375Phe | Q493R); settings: both partners purified

| Binder | Kd [1] [nM] | kon [1] [M⁻¹ s⁻¹] | Kd [2] [nM] | koff [2] [s⁻¹] | kon [2] [M⁻¹ s⁻¹] | Kd [3] [nM] | koff [3] [s⁻¹] | kon [3] [M⁻¹ s⁻¹] | Kd [4] [nM] | koff [4] [s⁻¹] | kon [4] [M⁻¹ s⁻¹] | Kd [5] [nM] | koff [5] [s⁻¹] | kon [5] [M⁻¹ s⁻¹] | Kd [6] [nM] | koff [6] [s⁻¹] | kon [6] [M⁻¹ s⁻¹] | Kd [7] [nM] | koff [7] [s⁻¹] | kon [7] [M⁻¹ s⁻¹] | further results |
| --- | --- | --- | --- | --- | --- | --- | --- | --- | --- | --- | --- | --- | --- | --- | --- | --- | --- | --- | --- | --- | --- |
| N3-1_M (antibody, V domains shown, IgG1) VH: QVQLQQWGPGLVNPSETLSLTCSVSGGSFATENYYWSWIRQHPGEGLEWIGNIYFSGNTYYNPSLNNRFTISFDTSKNHLSLKLPSVTAADTAVYYCARGTIYFDMSGYRRVDPFHIWGQGTMVIVSS VL: not shown | 4.22 | 65900 | 428 | 0.00368 | 8590 | 178 | 0.00245 | 13800 | 28 | 0.000621 | 22200 | 172 | 0.00253 | 14700 | 4420 | 0.00151 | 342 | 33.2 | 0.00105 | 31700 | koff [1]: 0.000278 s⁻¹ |
| N3-1_Y (antibody, V domains shown, IgG1) VH: QVQLQQWGPGLVNPSETLSLTCSVSGGSFATENYYWSWIRQHPGEGLEWIGNIYFSGNTYYNPSLNNRFTISFDTSKNHLSLKLPSVTAADTAVYYCARGTIYFDYSGYRRVDPFHIWGQGTMVIVSS VL: not shown | 5.45 | 137000 | 709 | 0.00791 | 11200 | 225 | 0.00447 | 19900 | 142 | 0.00385 | 27100 | 337 | 0.0072 | 21300 | 233 | 0.000325 | 1400 | 3550 | 0.00213 | 600 | koff [1]: 0.000748 s⁻¹ |
| N3-1_I (antibody, V domains shown, IgG1) VH: QVQLQQWGPGLVNPSETLSLTCSVSGGSFATENYYWSWIRQHPGEGLEWIGNIYFSGNTYYNPSLNNRFTISFDTSKNHLSLKLPSVTAADTAVYYCARGTIYFDISGYRRVDPFHIWGQGTMVIVSS VL: not shown | – | 76000 | 331 | 0.00193 | 5820 | 121 | 0.00146 | 12100 | 76.9 | 0.00112 | 14600 | 145 | 0.00168 | 11600 | 1220 | 0.000796 | 651 | 20.4 | 0.00136 | 66700 | – |
| N3-1_L (antibody, V domains shown, IgG1) VH: QVQLQQWGPGLVNPSETLSLTCSVSGGSFATENYYWSWIRQHPGEGLEWIGNIYFSGNTYYNPSLNNRFTISFDTSKNHLSLKLPSVTAADTAVYYCARGTIYFDLSGYRRVDPFHIWGQGTMVIVSS VL: not shown | 6 | 78300 | 660 | 0.00429 | 6490 | 273 | 0.00415 | 15200 | 173 | 0.00339 | 19500 | 414 | 0.00689 | 16600 | 54.1 | 0.00037 | 6840 | 15200 | 0.00357 | 234 | koff [1]: 0.00047 s⁻¹ |
| N3-1_I (antibody, V domains shown, IgG1; copies: 2 + 2) VH: QVQLQQWGPGLVNPSETLSLTCSVSGGSFATENYYWSWIRQHPGEGLEWIGNIYFSGNTYYNPSLNNRFTISFDTSKNHLSLKLPSVTAADTAVYYCARGTIYFDISGYRRVDPFHIWGQGTMVIVSS VL: not shown | – | – | – | – | – | – | – | – | – | – | – | – | – | – | – | – | – | – | – | – | fold improvement in Kd against wild-type N3-1 [8]: 20 fold; fold improvement in Kd against wild-type N3-1 [9]: 4 fold |
